Reference: PMC6396125 (ACS Omega, 2019)
“And” between values parts separate entries of the source, which are not always exact repeats. Equal entries are not always repeated. Where two headings read alike, the source gives them in different places. Ends that are not written are not given here.

Columns and labels:
L. lactis OppA = target: T1, L. lactis OppA (Lactococcus lactis subsp. lactis, UniProt Q07741); test: Fluorescence anisotropy competition binding assay
T1 sequence (Q07741 35-600 limits assumed): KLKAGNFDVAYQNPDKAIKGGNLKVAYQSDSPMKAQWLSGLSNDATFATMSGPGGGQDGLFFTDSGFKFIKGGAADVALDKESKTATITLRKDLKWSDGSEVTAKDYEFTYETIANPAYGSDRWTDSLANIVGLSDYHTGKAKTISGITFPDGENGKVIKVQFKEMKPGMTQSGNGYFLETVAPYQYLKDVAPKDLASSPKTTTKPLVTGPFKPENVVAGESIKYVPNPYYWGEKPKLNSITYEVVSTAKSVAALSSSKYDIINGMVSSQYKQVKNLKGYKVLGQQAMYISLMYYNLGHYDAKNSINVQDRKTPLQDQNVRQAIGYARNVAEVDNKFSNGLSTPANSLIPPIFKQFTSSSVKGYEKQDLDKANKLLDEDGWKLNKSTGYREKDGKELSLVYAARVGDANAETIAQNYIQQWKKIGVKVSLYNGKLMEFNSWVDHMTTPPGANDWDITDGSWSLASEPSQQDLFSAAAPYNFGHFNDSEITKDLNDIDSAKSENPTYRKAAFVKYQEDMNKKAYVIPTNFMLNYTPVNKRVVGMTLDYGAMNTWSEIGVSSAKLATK

[1] = target: bradykinin labeled with sulforhodamine 101 on the C-terminus; test: fluorescence polarisation
[2] = target: Lactococcus lactis oligopeptide-binding protein A (OppA) (Lactococcus lactis subspecies cremoris MG1363); test: fluorescence polarisation
[3] = target: Lactococcus lactis oligopeptide-binding protein A (OppA) (Lactococcus lactis subspecies cremoris MG1363); test: fluorescence polarisation; remark: listed apart in the source
[4] = target: Lactococcus lactis oligopeptide-binding protein A (OppA) (Lactococcus lactis subspecies cremoris MG1363); test: fluorescence polarisation; remark: listed apart in the source
[5] = target: Lactococcus lactis oligopeptide-binding protein A (OppA) (Lactococcus lactis subspecies cremoris MG1363); test: fluorescence polarisation; remark: listed apart in the source

IC50 [3] [µM] | Kd [3] [µM] | Compound | Kd (L. lactis OppA) [µM] | further results
– | – | CC[C@H](C)[C@H](NC(=O)[C@H](CCCNC(=N)N)NC(=O)[C@H](CCCNC(=N)N)NC(=O)[C@H](CC(C)C)NC(=O)[C@H](Cc1ccccc1)NC(=O)CNC(=O)CNC(=O)[C@@H](N)Cc1ccc(O)cc1)C(=O)N[C@@H](CCCNC(=N)N)C(=O)N1CCC[C@H]1C(=O)N[C@@H](CCCCN)C(=O)N[C@@H](CC(C)C)C(=O)N[C@@H](CCCCN)C(=O)N[C@@H](Cc1c[nH]c2ccccc12)C(=O)N[C@@H](CC(=O)O)C(=O)N[C@@H](CC(N)=O)C(=O)N[C@@H](CCC(N)=O)C(=O)O [dynorphin-A (1–17)] | 3.3 ± 0.6 | –
– | – | Lactococcus lactis oligopeptide-binding protein A (OppA) (natural protein) | – | Kd [1]: 22.9 µM and 15.4 µM
– | – | SFRNGVGSGVKKTSFRRAKQ [neuropeptide S] | – | IC50 from competition binding assay (L. lactis OppA; pH 6, 30 °C, vs prebound bradykinin-SR101 (1 μM) + OppA (15 μM) mixture, at least 1 h, mean ± SD, n = 3): no fit
– | – | SLSQSKVLPVPQ [casein-derived peptide] | 0.2 ± 0.01 | –
– | – | YGGFLRRIR [dynorphin-A (1–9)] | 13.3 ± 0.7 | –
5.2 | 0.13 | bradykinin (peptide) | – | Kd [2]: 0.4 µM; IC50 [4]: 5.1 µM and 5.3 µM and 5.6 µM; Kd [4]: < 0.1 µM and 0.31 µM; Kd [5]: 0.2 µM and 0.36 µM and 0.7 µM
34.2 | 13.3 | dynorphin-A (1–9) (peptide) | – | –
11 | 3.3 | dynorphin-A (1–17) (peptide) | – | –
– | 1800 | neuropeptide S | – | –

Compound | IC50 [3] [µM] | Kd [3] [µM] | Kd (L. lactis OppA) [µM] | further results
leu-enkephalin (peptide) | 2000 | – | – | –
